This note sets out measurements from FireProtDB.

For this series the following is noted: whole UniProt chain shown.
Where [1] appears, read: Bos taurus, pH 7.2, Thermal, DSC, phosphate 20 mM, reversible: yes (partial).
Setting [2] is: Bos taurus, pH 7.4, Thermal, DSC, potassium phosphate 20 mM, reversible: Yes (65%).
[3] abbreviates: Bos taurus, pH 7, 25 °C, GdnHCl, CD, sodium cacodylate 50 mM, NaCl 50 mM.
Where [4] appears, read: Bos taurus, pH 7, Thermal, CD, C2H6AsNaO2 50 mM, NaCl 50 mM.
The mark [5] stands for this setting: Bos taurus, pH 7.5, Thermal, DSC, Tris-HCl 10 mM, CaCl2 260 micro M.
[6] abbreviates: Bos taurus, pH 8, 25 °C, GdnHCl, CD, Tris-HCl 20 mM.
The mark [7] stands for this setting: Bos taurus, pH 8, 25 °C, Thermal, CD, borate 10 mM, NaCl 0.01-1.0 M.
The mark [8] stands for this setting: Bos taurus, pH 8, 25 °C, Thermal, DSC, Tris-HCl 10 mM, reversible: yes.
[9] abbreviates: Bos taurus, pH 8, Thermal, DSC, Tris-HCl 5 mM.
Setting [10] is: Bos taurus, pH 8, Thermal, DSC, Tris-HCl 10mM, reversible: yes.
[11] abbreviates: Bos taurus, pH 8, Thermal, DSC, borate 10 mM, NaCl 0.2 M, reversible: yes (>95%).

“And” between values parts separate entries of the source, which are not always exact repeats. Equal entries are not always repeated.

B1: Alpha-crystallin A chain wild type, P02470 (protein)
chain: MDIAIQHPWFKRTLGPFYPSRLFDQFFGEGLFEYDLLPFLSSTISPYYRQSLFRTVLDSGISEVRSDRDKFVIFLDVKHFSPEDLTVKVQEDFVEIHGKHNERQDDHGYISREFHRRYRLPSNVDQSALSCSLSADGMLTFSGPKIPSGVDAGHSERAIPVSREEKPSSAPSS
What is called Tm is the temperature at the midpoint of the melting transition. In the case of B1, the unfolding free energy (Bos taurus, pH 5, 20 °C, Urea, Fluorescence, Sodium acetate 50 mM) was found to be 8.46 kcal/mol. Moreover, under setting [1], the melting temperature (Tm) stood at 45.6 °C, the “unfolding enthalpy (calorimetric)” value came out at 98 kcal/mol and the “unfolding enthalpy (van 't Hoff)” value was 91 kcal/mol. Moreover, under setting [2], the Tm was 59.8 °C, the “heat capacity change of unfolding” value was found to be 1.36 kcal/mol/K, the “unfolding enthalpy (calorimetric)” value was determined as 80.3 kcal/mol and the “unfolding enthalpy (van 't Hoff)” value came to 78.6 kcal/mol.

B2: Malate dehydrogenase wild type, P80040 (protein)
chain: MRKKISIIGAGFVGSTTAHWLAAKELGDIVLLDFVEGVPQGKALDLYEASPIEGFDVRVTGTNNYADTANSDVIVVTSGAPRKPGMSREDLIKVNADITRACISQAAPLSPNAVIIMVNNPLDAMTYLAAEVSGFPKERVIGQAGVLDAARYRTFIAMEAGVSVEDVQAMLMGGHGDEMVPLPRFSTISGIPVSEFIAPDRLAQIVERTRKGGGEIVNLLKTGSAYYAPAAATAQMVEAVLKDKKRVMPVAAYLTGQYGLNDIYFGVPVILGAGGVEKILELPLNEEEMALLNASAKAVRATLDTLKSL
As to B2, the melting temperature (Tm) (Chloroflexus aurantiacus (strain ATCC 29366 / DSM 635 / J-10-fl), pH 7.5, Thermal, CD, potassium phosphate 10 mM, reversible: No) was found to be 67.8 °C.

B3: Alpha-lactalbumin wild type, P00711 (protein)
chain: MMSFVSLLLVGILFHATQAEQLTKCEVFRELKDLKGYGGVSLPEWVCTTFHTSGYDTQAIVQNNDSTEYGLFQINNKIWCKDDQNPHSSNICNISCDKFLDDDLTDDIMCVKKILDKVGINYWLAHKALCSEKLDQWLCEKL
Take B3: the denaturant m value was determined as 2.43 kcal/mol/M under setting [3] and 0.84 kcal/mol/M under setting [6]. Also, the unfolding free energy under setting [3] was found to be 7.29 kcal/mol; the unfolding free energy under setting [6] was 2.07 kcal/mol; the unfolding free energy under setting [8] was 5.02 kcal/mol and 3.59 kcal/mol. Moreover, the midpoint of thermal melting (Tm) under setting [4] came out at 25 °C; the Tm under setting [5] turned out to be 64.2 °C; the midpoint of thermal melting (Tm) under setting [9] turned out to be 28.2 °C; the melting temperature (Tm) under setting [10] came to 55.2 °C; the Tm under setting [11] amounted to 71.3 °C. The “heat capacity change of unfolding” value stood at 1.1 kcal/mol/K under setting [4]; 1.18 kcal/mol/K under setting [7]; 1.03 kcal/mol/K under setting [8]; 1.48 kcal/mol/K under setting [9]; 1.6 kcal/mol/K under setting [11]. Besides, the “unfolding enthalpy (van 't Hoff)” value under setting [4] is 38 kcal/mol, the “unfolding enthalpy (van 't Hoff)” value under setting [7] was determined as 44.7 kcal/mol and the “unfolding enthalpy (van 't Hoff)” value under setting [11] was 84 kcal/mol. Besides, the “unfolding enthalpy (calorimetric)” value came to 72.2 kcal/mol under setting [5], 35.2 kcal/mol under setting [9], 55 kcal/mol under setting [10] and 80 kcal/mol under setting [11]. Also, the “denaturant midpoint (higher = more stable)” value under setting [6] turned out to be 2.46 M.
